In article PMC9813255 (2023):

B1: full-length human PQBP5 (His-tag fusion protein) (natural protein)
chain: MQVSSLNEVKIYSLSCGKSLPEWLSDRKKRALQKKDVDVRRRIELIQDFEMPTVCTTIKVSKDGQYILATGTYKPRVRCYDTYQLSLKFERCLDSEVVTFEILSDDYSKIVFLHNDRYIEFHSQSGFYYKTRIPKFGRDFSYHYPSCDLYFVGASSEVYRLNLEQGRYLNPLQTDAAENNVCDINSVHGLFATGTIEGRVECWDPRTRNRVGLLDCALNSVTADSEINSLPTISALKFNGALTMAVGTTTGQVLLYDLRSDKPLLVKDHQYGLPIKSVHFQDSLDLILSADSRIVKMWNKNSGKIFTSLEPEHDLNDVCLYPNSGMLLTANETPKMGIYYIPVLGPAPRWCSFLDNLTEELEENPESTVYDDYKFVTKKDLENLGLTHLIGSPFLRAYMHGFFMDIRLYHKVKLMVNPFAYEEYRKDKIRQKIEETRAQRVQLKKLPKVNKELALKLIEEEEEKQKSTWKKKVKSLPNILTDDRFKVMFENPDFQVDEESEEFRLLNPLVSKISEKRKKKLRLLEQQELREKEEEEEPEGKPSDAESSESSDDEKAWVEEVRKQRRLLQQEEKVKRQERLKEDQQTVLKPQFYEIKAGEEFRSFKDSATKQKLMNKTLEDRLKIEAKNGTLSVSDTTVGSKQLTFTLKRSEQQKKQQEAEKLHRQERKRLRRSAGHLKSRHKRGRSFH
modifications: Exon 1 ends at ...LHRP, which agrees with the printed Htt reverse primer. The entry carries 21Q (18-38); one Q is removed to give the 20Q of the assayed protein name. The plasmid is called 17Q, so the repeat count is ambiguous. GST omitted.
B2: PQBP5-Δ3 (protein)
chain: IPVLGPAPRWCSFLDNLTEELEENPESTVYDDYKFVTKKDLENLGLTHLIGSPFLRAYMHGFFMDIRLYHKVKLMVNPFAYEEYRKDKIRQKIEETRAQRVQLKKLPKVNKELALKLIEEEEEKQKSTWKKKVKSLPNILTDDRFKVMFENPDFQVDEESEEFRLLNPLVSKISEKRKKKLRLLEQQELREKEEEEEPEGKPSDAESSESSDDEKAWVEEVRKQRRLLQQEEKVKRQERLKEDQQTVLKPQFYEIKAGEEFRSFKDSATKQKLMNKTLEDRLKIEAKNGTLSVSDTTVGSKQLTFTLKRSEQQKKQQEAEKLHRQERKRLRRSAGHLKSRHKRGRSFH
modifications: Delta number assigned from the order of the constructs in the methods; initiator Met from the primer and tag omitted.
B3: PQBP5-Δ3 (protein)
chain: IPVLGPAPRWCSFLDNLTEELEENPESTVYDDYKFVTKKDLENLGLTHLIGSPFLRAYMHGFFMDIRLYHKVKLMVNPFAYEEYRKDKIRQKIEETRAQRVQLKKLPKVNKELALKLIEEEEEKQKSTWKKKVKSLPNILTDDRFKVMFENPDFQVDEESEEFRLLNPLVSKISEKRKKKLRLLEQQELREKEEEEEPEGKPSDAESSESSDDEKAWVEEVRKQRRLLQQEEKVKRQERLKEDQQTVLKPQFYEIKAGEEFRSFKDSATKQKLMNKTLEDRLKIEAKNGTLSVSDTTVGSKQLTFTLKRSEQQKKQQEAEKLHRQERKRLRRSAGHLKSRHKRGRSFH
modifications: Delta number assigned from the order of the constructs in the methods; initiator Met from the primer and tag omitted. Exon 1 ends at ...LHRP, which agrees with the printed Htt reverse primer. The entry carries 21Q (18-38); one Q is removed to give the 20Q of the assayed protein name. The plasmid is called 17Q, so the repeat count is ambiguous. GST omitted.
B4: PQBP5-Δ1 (protein)
chain: TYQLSLKFERCLDSEVVTFEILSDDYSKIVFLHNDRYIEFHSQSGFYYKTRIPKFGRDFSYHYPSCDLYFVGASSEVYRLNLEQGRYLNPLQTDAAENNVCDINSVHGLFATGTIEGRVECWDPRTRNRVGLLDCALNSVTADSEINSLPTISALKFNGALTMAVGTTTGQVLLYDLRSDKPLLVKDHQYGLPIKSVHFQDSLDLILSADSRIVKMWNKNSGKIFTSLEPEHDLNDVCLYPNSGMLLTANETPKMGIYYIPVLGPAPRWCSFLDNLTEELEENPESTVYDDYKFVTKKDLENLGLTHLIGSPFLRAYMHGFFMDIRLYHKVKLMVNPFAYEEYRKDKIRQKIEETRAQRVQLKKLPKVNKELALKLIEEEEEKQKSTWKKKVKSLPNILTDDRFKVMFENPDFQVDEESEEFRLLNPLVSKISEKRKKKLRLLEQQELREKEEEEEPEGKPSDAESSESSDDEKAWVEEVRKQRRLLQQEEKVKRQERLKEDQQTVLKPQFYEIKAGEEFRSFKDSATKQKLMNKTLEDRLKIEAKNGTLSVSDTTVGSKQLTFTLKRSEQQKKQQEAEKLHRQERKRLRRSAGHLKSRHKRGRSFH
modifications: Delta number assigned from the order of the constructs in the methods; initiator Met from the primer and tag omitted. Exon 1 ends at ...LHRP, which agrees with the printed Htt reverse primer. The entry carries 21Q (18-38); one Q is removed to give the 20Q of the assayed protein name. The plasmid is called 17Q, so the repeat count is ambiguous. GST omitted.
B5: PQBP5-Δ2 (protein)
chain: PRTRNRVGLLDCALNSVTADSEINSLPTISALKFNGALTMAVGTTTGQVLLYDLRSDKPLLVKDHQYGLPIKSVHFQDSLDLILSADSRIVKMWNKNSGKIFTSLEPEHDLNDVCLYPNSGMLLTANETPKMGIYYIPVLGPAPRWCSFLDNLTEELEENPESTVYDDYKFVTKKDLENLGLTHLIGSPFLRAYMHGFFMDIRLYHKVKLMVNPFAYEEYRKDKIRQKIEETRAQRVQLKKLPKVNKELALKLIEEEEEKQKSTWKKKVKSLPNILTDDRFKVMFENPDFQVDEESEEFRLLNPLVSKISEKRKKKLRLLEQQELREKEEEEEPEGKPSDAESSESSDDEKAWVEEVRKQRRLLQQEEKVKRQERLKEDQQTVLKPQFYEIKAGEEFRSFKDSATKQKLMNKTLEDRLKIEAKNGTLSVSDTTVGSKQLTFTLKRSEQQKKQQEAEKLHRQERKRLRRSAGHLKSRHKRGRSFH
modifications: Delta number assigned from the order of the constructs in the methods; initiator Met from the primer and tag omitted.
B6: PQBP5-Δ2 (protein)
chain: PRTRNRVGLLDCALNSVTADSEINSLPTISALKFNGALTMAVGTTTGQVLLYDLRSDKPLLVKDHQYGLPIKSVHFQDSLDLILSADSRIVKMWNKNSGKIFTSLEPEHDLNDVCLYPNSGMLLTANETPKMGIYYIPVLGPAPRWCSFLDNLTEELEENPESTVYDDYKFVTKKDLENLGLTHLIGSPFLRAYMHGFFMDIRLYHKVKLMVNPFAYEEYRKDKIRQKIEETRAQRVQLKKLPKVNKELALKLIEEEEEKQKSTWKKKVKSLPNILTDDRFKVMFENPDFQVDEESEEFRLLNPLVSKISEKRKKKLRLLEQQELREKEEEEEPEGKPSDAESSESSDDEKAWVEEVRKQRRLLQQEEKVKRQERLKEDQQTVLKPQFYEIKAGEEFRSFKDSATKQKLMNKTLEDRLKIEAKNGTLSVSDTTVGSKQLTFTLKRSEQQKKQQEAEKLHRQERKRLRRSAGHLKSRHKRGRSFH
modifications: Delta number assigned from the order of the constructs in the methods; initiator Met from the primer and tag omitted. Exon 1 ends at ...LHRP, which agrees with the printed Htt reverse primer. The entry carries 21Q (18-38); one Q is removed to give the 20Q of the assayed protein name. The plasmid is called 17Q, so the repeat count is ambiguous. GST omitted.
B7: PQBP5-Δ5 (protein)
chain: MQVSSLNEVKIYSLSCGKSLPEWLSDRKKRALQKKDVDVRRRIELIQDFEMPTVCTTIKVSKDGQYILATGTYKPRVRCYDTYQLSLKFERCLDSEVVTFEILSDDYSKIVFLHNDRYIEFHSQSGFYYKTRIPKFGRDFSYHYPSCDLYFVGASSEVYRLNLEQGRYLNPLQTDAAENNVCDINSVHGLFATGTIEGRVECWDPRTRNRVGLLDCALNSVTADSEINSLPTISALKFNGALTMAVGTTTGQVLLYDLRSDKPLLVKDHQYGLPIKSVHFQDSLDLILSADSRIVKMWNKNSGKIFTSLEPEHDLNDVCLYPNSGMLLTANETPKMGIYYIPVLGPAPRWCSFLDNLTEELEENPESTVYDDYKFVTKKDLENLGLTHLIGSPFLRAYMHGFFMDIRLYHKVKLMVNPFAYEEYRKDKIRQKIEETRAQRVQLKKLPKVNKELALKLIEEEEEKQKSTWKKKVKSLPNILT
modifications: Delta number assigned from the order of the constructs in the methods (fifth: 1-481, lacking NUC153); tag omitted.
B8: PQBP5-Δ5 (protein)
chain: MQVSSLNEVKIYSLSCGKSLPEWLSDRKKRALQKKDVDVRRRIELIQDFEMPTVCTTIKVSKDGQYILATGTYKPRVRCYDTYQLSLKFERCLDSEVVTFEILSDDYSKIVFLHNDRYIEFHSQSGFYYKTRIPKFGRDFSYHYPSCDLYFVGASSEVYRLNLEQGRYLNPLQTDAAENNVCDINSVHGLFATGTIEGRVECWDPRTRNRVGLLDCALNSVTADSEINSLPTISALKFNGALTMAVGTTTGQVLLYDLRSDKPLLVKDHQYGLPIKSVHFQDSLDLILSADSRIVKMWNKNSGKIFTSLEPEHDLNDVCLYPNSGMLLTANETPKMGIYYIPVLGPAPRWCSFLDNLTEELEENPESTVYDDYKFVTKKDLENLGLTHLIGSPFLRAYMHGFFMDIRLYHKVKLMVNPFAYEEYRKDKIRQKIEETRAQRVQLKKLPKVNKELALKLIEEEEEKQKSTWKKKVKSLPNILT
modifications: Delta number assigned from the order of the constructs in the methods (fifth: 1-481, lacking NUC153); tag omitted. Exon 1 ends at ...LHRP, which agrees with the printed Htt reverse primer. The entry carries 21Q (18-38); one Q is removed to give the 20Q of the assayed protein name. The plasmid is called 17Q, so the repeat count is ambiguous. GST omitted.

Tests used:
Test in all cases: SPR
GST-Htt-20Q = target: T1, GST-Htt-20Q
T1 chain: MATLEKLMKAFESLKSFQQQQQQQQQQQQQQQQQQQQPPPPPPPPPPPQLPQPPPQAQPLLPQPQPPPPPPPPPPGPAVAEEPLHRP

GST-Atxn1-33Q = target: T2, GST-Atxn1-33Q (UniProt P54253 1-815)
T2 chain: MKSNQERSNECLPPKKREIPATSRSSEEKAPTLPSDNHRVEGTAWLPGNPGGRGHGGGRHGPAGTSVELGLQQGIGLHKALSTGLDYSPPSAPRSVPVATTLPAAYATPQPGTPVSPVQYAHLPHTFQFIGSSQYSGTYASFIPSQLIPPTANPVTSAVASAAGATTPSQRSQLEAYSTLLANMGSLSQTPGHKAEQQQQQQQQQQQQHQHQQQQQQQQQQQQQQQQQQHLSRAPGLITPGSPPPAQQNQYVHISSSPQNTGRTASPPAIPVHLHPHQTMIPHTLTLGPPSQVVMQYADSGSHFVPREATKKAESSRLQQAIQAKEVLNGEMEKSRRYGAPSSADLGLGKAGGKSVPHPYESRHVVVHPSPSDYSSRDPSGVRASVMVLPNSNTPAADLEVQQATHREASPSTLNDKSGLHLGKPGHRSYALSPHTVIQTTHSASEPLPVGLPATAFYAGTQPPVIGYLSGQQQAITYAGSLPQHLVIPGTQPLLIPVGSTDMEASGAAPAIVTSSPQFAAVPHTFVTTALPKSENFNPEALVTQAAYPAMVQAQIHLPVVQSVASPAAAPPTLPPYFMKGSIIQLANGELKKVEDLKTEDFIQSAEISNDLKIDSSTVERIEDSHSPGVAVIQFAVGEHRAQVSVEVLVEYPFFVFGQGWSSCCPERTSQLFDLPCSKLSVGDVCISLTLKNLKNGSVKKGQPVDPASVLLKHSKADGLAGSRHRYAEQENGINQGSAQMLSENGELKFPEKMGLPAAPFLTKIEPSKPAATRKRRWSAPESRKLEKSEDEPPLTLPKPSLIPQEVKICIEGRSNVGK

GST-Atxn1-86Q = target: T3, GST-Atxn1-86Q (UniProt P54253 1-815)
T3 chain: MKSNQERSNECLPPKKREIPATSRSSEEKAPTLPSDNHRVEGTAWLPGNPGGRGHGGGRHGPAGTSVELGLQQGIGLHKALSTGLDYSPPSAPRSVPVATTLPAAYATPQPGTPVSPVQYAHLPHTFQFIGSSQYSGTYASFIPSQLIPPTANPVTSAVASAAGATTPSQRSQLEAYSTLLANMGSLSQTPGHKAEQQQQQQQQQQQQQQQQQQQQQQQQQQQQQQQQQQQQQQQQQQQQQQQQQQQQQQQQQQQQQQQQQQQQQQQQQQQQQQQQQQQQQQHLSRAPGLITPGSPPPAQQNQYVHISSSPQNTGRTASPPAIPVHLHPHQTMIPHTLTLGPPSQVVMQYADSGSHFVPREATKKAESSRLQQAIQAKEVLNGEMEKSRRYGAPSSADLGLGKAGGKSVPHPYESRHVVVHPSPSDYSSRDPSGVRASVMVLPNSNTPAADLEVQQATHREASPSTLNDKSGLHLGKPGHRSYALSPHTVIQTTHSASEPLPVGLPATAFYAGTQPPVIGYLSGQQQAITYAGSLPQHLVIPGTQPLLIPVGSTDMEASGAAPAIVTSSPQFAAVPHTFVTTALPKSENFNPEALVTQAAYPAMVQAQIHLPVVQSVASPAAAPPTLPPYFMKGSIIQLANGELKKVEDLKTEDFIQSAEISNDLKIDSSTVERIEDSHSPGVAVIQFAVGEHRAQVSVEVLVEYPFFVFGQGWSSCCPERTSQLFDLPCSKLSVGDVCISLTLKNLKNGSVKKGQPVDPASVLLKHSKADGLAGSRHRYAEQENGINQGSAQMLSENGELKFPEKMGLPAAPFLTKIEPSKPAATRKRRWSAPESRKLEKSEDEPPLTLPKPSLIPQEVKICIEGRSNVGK

Binder | Kd (GST-Htt-20Q) | Kd (GST-Atxn1-33Q) | Kd (GST-Atxn1-86Q)
B1 | 0.0308 nM | – | –
B2 | – | 255 nM | –
B3 | 402 nM | – | –
B4 | 2.67 nM | – | –
B5 | – | 830 nM | 183 nM
B6 | 463 nM | – | –
B7 | – | 0.194 nM | 0.128 nM
B8 | 0.354 nM | – | –
